These results are taken from the supplement of paper PMC9170038.

For the data set, the system named is MS2 coat protein. Briefly: apparent KD of MS2 coat protein; designed switch direction (-1 OFF switch, 1 ON switch): -1; higher = weaker reporter binding. A digest of the protocol: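 The buffer was Tris-HCl pH 7.5 with KCl, MgCl2, BSA, DTT, tRNA and Tween-20. In it, SNAP-549-labelled MS2 coat protein was titrated in doubling steps from 0.7 or 1.5 nM to 3 µM over chip-bound RNA switches transcribed by stalled E. coli RNA polymerase on Illumina chips. Apparent KD is the per-design median over clusters of curve fits to normalised fluorescence.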

The mark [1] stands for this setting: input ligand: microRNA oligo, concentration not stated.
Setting [2] is: Eterna round: R95, input ligand: microRNA oligo, concentration not stated.
[3] abbreviates: Eterna round: R95, input ligand: FMN 200 uM.
Where [4] appears, read: Eterna round: R95, input ligand: none.

In the case of “AUAGUCUGGCAAGGAUAUAGGAAAGGAAGUGUACUAGAAGGUGCGCAGACAUGAGGAUCACCCAUGUGAGCCGACGAAAUAAUA [PowerStrip EXNG 1.17] (Eterna round: R96, puzzle: Exclusion NG 1)”, the “apparent KD of MS2 coat protein” value amounted to 0.523 µM (input ligand: FMN 200 uM), 0.0885 µM under setting [1] and 0.141 µM (input ligand: none).

Consider “UGAUCUAGCGGAGGAUAUACAUGAGGAUCACCCAUGUAUAGGCCAUCUGGUGACAGGUGGAACAUGUAGAAGGCCGCUAGAUCU [JL ENG2 3.81] (Eterna round: R96, puzzle: Exclusion NG 2)”, for which the “apparent KD of MS2 coat protein” value by setting is: (input ligand: FMN 200 uM) 0.0359 µM; under setting [1], 0.00954 µM; (input ligand: none) 0.0139 µM.

Take “UAUUUAUAGCAAGGAUAUGAUUAUUAUUAUUUAUCAGAAGGUGCACAUGAGGAUCACCCAUGUUUUACAAUUUGUAAUUUAAUU [Default title] (Eterna round: R96, puzzle: Exclusion NG 1)”: the “apparent KD of MS2 coat protein” value under setting [1] amounted to 0.0311 µM.

As to “CAAAAUGUAUAAGGAUAUCUCGCCAAUAAAGGCAGAGAAGGUAUACCCACUUGAGGAUCACCCAAGUCACGUGUGCCUGGUGGA [Mutated MS2 EX1.25] (Eterna round: R96, puzzle: Exclusion NG 1)”, the “apparent KD of MS2 coat protein” value (input ligand: FMN 200 uM) is 0.00927 µM, the “apparent KD of MS2 coat protein” value under setting [1] worked out at 0.00925 µM and the “apparent KD of MS2 coat protein” value (input ligand: none) stood at 0.011 µM.

Regarding “GAGUGUUGAGGAUAUACAUGAGGAUCACCCAUGUGCUUCAGCUAGGAGACUAGCAUUGGUAGAAGGCAAUACUC [Mod of lroppy 6 - Jieux - Exclusion 3] (Eterna round: R97, puzzle: Exclusion 3)”, the “apparent KD of MS2 coat protein” value is, setting by setting: (input ligand: FMN 200 uM) 0.0907 µM; (input ligand: none) 0.0148 µM.

As for “UGAGUGCUGCGAGGAUAUACAUGAGGAUCACCCAUGUUUAGGUGUGAGGCUUUGCCUCACACCAUGUAGAAGGCGCAGUACUCU [JL ENG2 1.07] (Eterna round: R96, puzzle: Exclusion NG 2)”, the “apparent KD of MS2 coat protein” value (input ligand: FMN 200 uM) was 0.0168 µM, the “apparent KD of MS2 coat protein” value under setting [1] was determined as 0.00896 µM and the “apparent KD of MS2 coat protein” value (input ligand: none) was 0.0128 µM.

Turning to “GAAUACAGAGGAUAUGCGUAAUAGGUAGUAAGAUAUAUAUGACAUGAGGAUCACCCAUGUAGAAGGCUGAGAUA [EX2 #1] (Eterna round: R97, puzzle: Exclusion 2)”, the “apparent KD of MS2 coat protein” value runs as follows: (input ligand: FMN 200 uM) 0.0269 µM; (input ligand: none) 0.0305 µM.

Turning to “GGGCCCGGAGGAUAUACAAUUCUGGGCUGAAAGGCUCGGGUACAUGAGGAUCACCCAUGUAGAAGGCCGGGCCC [-37.6, -34.7 kcal A 24%, 7bis-0] (Eterna round: R97, puzzle: Exclusion 2)”, the “apparent KD of MS2 coat protein” value was determined as 0.0334 µM (input ligand: FMN 200 uM) and 0.0149 µM (input ligand: none).

In the case of “UCGACCGGAGGAUAUCACGUAAAGUACAUGAGGAUCACCCAUGUGUGAUGACUCGAGUCGUGAGAAGGCCGAUAUG [Larausbeer] (puzzle: Exclusion 5)”, the “apparent KD of MS2 coat protein” value under setting [2] is 0.0658 µM.

With “ACUCUACAUGAGGAUCACCCAUGUGAGGAUAUCAAAGCCAGAGCGGAUCUCUGGUCCAUGAGAAGGUGCAUGGU [ElNandoxlusion 3 - Jieux - Exclusion 1] (Eterna round: R97, puzzle: Exclusion 1)”, the “apparent KD of MS2 coat protein” value by setting is: (input ligand: FMN 200 uM) 0.0734 µM; (input ligand: none) 0.0223 µM.

Take “UUGGAGAUAGGAUAUACGAGGAGAGUAGAGGGAAGGUGAUGACAUGAGGAUCACCCAUGUAGAAGGAUCAGGAG [JR_Exclu2_Sub068] (puzzle: Exclusion 2)”: under setting [2], the “apparent KD of MS2 coat protein” value stood at 0.112 µM.

For the sequence “UACAUGAGGAUCACCCAUGUUUUGUCGUGUAUGGUAUUUAUCUAGGAUAUCAAUUUAUUUAAUUAUGAGAAGGAGAAUAUUAAU [JMF's solution 21] (Eterna round: R96, puzzle: Exclusion NG 3)”, the “apparent KD of MS2 coat protein” value was determined as 0.0363 µM (input ligand: FMN 200 uM), 0.0277 µM under setting [1] and 0.0347 µM (input ligand: none).

As for “GUAGAGUGAGGAUAUACGAGAUCGAAAGAUCGGCGAUCCAUACAUGAGGAUCACCCAUGUAGAAGGCACUCUAC [Eli x2 4.002] (Eterna round: R97, puzzle: Exclusion 2)”, the “apparent KD of MS2 coat protein” value is, setting by setting: (input ligand: FMN 200 uM) 0.521 µM; (input ligand: none) 0.0263 µM.

Take “GCGGACUAGUACGUGAGUACUGAGACAUGAGGAUCACCCAUGUAGGAUAUCGAUUCGAAACGAAUCGAGAAGGGCAUAGUCCGC [JL denovo 10] (Eterna round: R96, puzzle: Exclusion NG 3)”: the “apparent KD of MS2 coat protein” value (input ligand: FMN 200 uM) was found to be 0.0197 µM, the “apparent KD of MS2 coat protein” value under setting [1] was found to be 0.0189 µM and the “apparent KD of MS2 coat protein” value (input ligand: none) stood at 0.0212 µM.

As for “CUGGUCCGAGGAUAUAUUAUGUGAAACAUGAGGAUCACCCAUGUUAUAUAAUGGAUGUAAAUAGAAGGCGGACUAG [Mat - Exclusion 5 - JL mod - D62] (puzzle: Exclusion 5)”, the “apparent KD of MS2 coat protein” value runs as follows: under setting [3], 0.0277 µM; under setting [2], 0.0255 µM; under setting [4], 0.0282 µM.

On to “CCGGUUGGCGCAGGAUAUACAUGAGGAUCACCCAUGUUCAUCAGGAUCACCGAUGAGUUUUUGUUGUAGAAGGGUGGCCCGGCC (Eterna round: R96, puzzle: Exclusion NG 2)”, for which the “apparent KD of MS2 coat protein” value under setting [1] was found to be 0.0242 µM.

Take “CUAGCGAUUGUAGGAUAUCGGACUGUUUCAGUCUGAGAAGGACAUGAGGAUCACCCAUGUGAUGGAUCGUGAGAUCCACGCUAG [JL ENG1 3.80] (Eterna round: R96, puzzle: Exclusion NG 1)”: the “apparent KD of MS2 coat protein” value is 0.195 µM (input ligand: FMN 200 uM), 0.0257 µM under setting [1] and 0.0279 µM (input ligand: none).

“CGUCUGUAAGGAUAUGGUUGCAUCGACAUGAGGAUCACCCAUGUAACGUGGGACUAGUGAUUAGAAGGUACGAACG [EX5 #61] (Eterna round: R97, puzzle: Exclusion 5)”: the “apparent KD of MS2 coat protein” value runs as follows: (input ligand: FMN 200 uM) 0.11 µM; (input ligand: none) 0.133 µM.

As for “UUAUACGCUGAGGAUAUCUUCACUAAAGUGUGAAGAGAAGGCGGUACAUGAGGAUCACCCAUGUCUAUGGGCAG [Ex-6 Malc#18] (puzzle: Exclusion 6)”, the “apparent KD of MS2 coat protein” value was determined as 0.596 µM under setting [3], 0.568 µM under setting [2] and 0.282 µM under setting [4].

In the case of “AAGACAAAUGUAGGAUAUGCGUGGCGAAGCUAUGCAGAAGGACAUGAGGAUCACCCAUGUCUAAGCGUCUGCGUACAGAUGCUA [JL eng1 1.35 mod 8] (Eterna round: R96, puzzle: Exclusion NG 1)”, the “apparent KD of MS2 coat protein” value reads like this: (input ligand: FMN 200 uM) 0.0199 µM; under setting [1], 0.0107 µM; (input ligand: none) 0.0184 µM.

For the sequence “GAUUAUGCGAGCUUUAGGGACAUGAGGAUCACCCAUGUUCGUCUUAUUAAUCUGGGUACACUGACAUACCUAAAUCU [JMF 69] (puzzle: Sensor v3, turn-off variant 1)”, the “apparent KD of MS2 coat protein” value by setting is: under setting [3], 0.0321 µM; under setting [2], 0.0484 µM; under setting [4], 0.0339 µM.

Turning to “GGUGCGUAUGUGAGGAUAUGCUGGUCCUUGGAUCAGCAGAAGGCACAUGAGGAUCACCCAUGUGGUGUCGUGCC [salish99_Bmod_Ex4_019] (puzzle: Brourd's mod of Exclusion 4)”, the “apparent KD of MS2 coat protein” value under setting [2] was found to be 0.168 µM.

Take “AUGUGCACGCUGCGGUCCUACAUGAGGAUCACCCAUGUGGUCUGGUGGCGUGGGUCGCCGGACUUGGCUCGUCUUGG [salish99_S_TOV1_R5_031] (Eterna round: R97, puzzle: Sensor, turn-off variant 1)”: the “apparent KD of MS2 coat protein” value worked out at 0.0156 µM (input ligand: FMN 200 uM) and 0.0159 µM (input ligand: none).

As for “GCCGUAAGUGUGAGGAUAUACCUAUGGAAACAUAGGUAGAAGGCACAUGAGGAUCACCCAUGUUCUCAAUCGGC [Mat - Exclusion 4 - Eli Mod - D5] (Eterna round: R97, puzzle: Brourd's mod of Exclusion 4)”, the “apparent KD of MS2 coat protein” value reads like this: (input ligand: FMN 200 uM) 0.458 µM; (input ligand: none) 0.245 µM.

“UUGAUGUGAGGAUAUGUGAUCUGCCUUCUAUAUAGAUGAUUACAGAAGGCACAUGAGGAUCACCCAUGUAGAUC [Ex4 - 3 - 24] (puzzle: Exclusion 4)”: the “apparent KD of MS2 coat protein” value under setting [2] came out at 0.0492 µM.

Take “GACUUCCGAGGAUAUACAUGAGGAUCACCCAUGUGCUUCAGCAUUUUUUGAUGCAUGGGUAGAAGGCGGUAGUU [LRO-Excl3-16] (puzzle: Exclusion 3)”: the “apparent KD of MS2 coat protein” value under setting [2] came to 0.226 µM.

Turning to “UUUUCACAUGAGGAUCACCCAUGUGAGGAUAUGGUUUCGCUGGCCGUAGCCAGUGGAACCAGAAGGCGCAUGAU [Mat - Exclusion 1 - JL Mod - D6] (Eterna round: R97, puzzle: Exclusion 1)”, the “apparent KD of MS2 coat protein” value was determined as 0.0353 µM (input ligand: FMN 200 uM) and 0.0302 µM (input ligand: none).

As for “UAUUAGCAAGCGAGAUCCCACAUGAGGAUCACCCAUGUAAAGCAUCCAGAAUUACUGGGUGCAAAAGCUCGUCUUUA [Winner reversed engineered 5] (Eterna round: R97, puzzle: Sensor, turn-off variant 1)”, the “apparent KD of MS2 coat protein” value (input ligand: FMN 200 uM) amounted to 0.0287 µM and the “apparent KD of MS2 coat protein” value (input ligand: none) amounted to 0.04 µM.

Consider “GAUCCUUAAGUCAGGAUAUCAAGCAAACUCUAAAUUGAGAAGGGACAUGAGGAUCACCCAUGUCACCGAAAUAA [Zabema] (puzzle: Brourd's mod of Exclusion 4)”, for which the “apparent KD of MS2 coat protein” value under setting [2] amounted to 0.013 µM.

As to “CAUGUCCAACGAGGAUAUGGGACAGGAAGUGUACCAGAAGGCGUACGGACAUGAGGAUCACCCAUGUCGCGCGGUGCGAUGUGG [MOD Nando EXNG 1.1] (Eterna round: R96, puzzle: Exclusion NG 1)”, the “apparent KD of MS2 coat protein” value came to 0.047 µM (input ligand: FMN 200 uM), 0.0238 µM under setting [1] and 0.0917 µM (input ligand: none).

“UUUUAACAUGAGGAUCACCCAUGUGAGGAUAUGGUUUUUUUUUUUUUUUUUUUUUUUUCCAGAAGGCACAUUUU [My solution] (Eterna round: R96, puzzle: Exclusion 1)”: the “apparent KD of MS2 coat protein” value by setting is: (input ligand: FMN 200 uM) 0.269 µM; under setting [1], 0.0442 µM; (input ligand: none) 0.0316 µM.
